Consider 29 sequences from the Immune Epitope Database (IEDB).

Some targets named below: HLA-A*02:03; HLA-A*02:06; HLA-A*02:02; HLA-A*33:01; HLA-A*11:01; HLA-A*31:01; HLA-A*03:01; HLA-A*68:01.
Assay in all cases: IEDB peptide-MHC binding, purified MHC/competitive/radioactivity; filed as Kd, often an IC50 or EC50 that approximates it; ≥ and ≤ were set here for values at or beyond the usual limits of such assays
[1] abbreviates: source organism: Vaccinia virus WR.
Setting [2] is: source organism: Mammarenavirus lassaense.
The mark [3] stands for this setting: source organism: SARS coronavirus Tor2.
Where [4] appears, read: source organism: Lymphocytic choriomeningitis virus (strain Armstrong).
[5] abbreviates: source organism: Mammarenavirus brazilense.

TVDVRNIVT: the dissociation constant (Kd) in the experiment with HLA-A*02:03 (setting [1]) is 13100 nM; with HLA-A*02:06 (setting [1]), at least 54000 nM; in the experiment with HLA-A*02:02 (setting [1]) it was 13400 nM.

In the case of LNCLSLLLSV, the dissociation constant Kd turned out to be 230 nM in the experiment with HLA-A*02:03 (setting [2]), 250 nM with HLA-A*02:06 (setting [2]) and 123 nM in the experiment with HLA-A*02:02 (setting [2]).

Regarding LIKTLSPAHL, the Kd in the experiment with HLA-A*02:03 (setting [1]) was 356 nM; with HLA-A*02:06 (setting [1]), 10200 nM; in the experiment with HLA-A*02:02 (setting [1]) it was 1850 nM.

On to TQFNFNGHT, for which the Kd with HLA-A*02:03 (setting [1]) was 14400 nM; with HLA-A*02:06 (setting [1]), at least 10000 nM; with HLA-A*02:02 (setting [1]), at least 43300 nM.

Take IVSHLRASTT: the dissociation constant (Kd) amounted to 111 nM with HLA-A*02:03 (setting [1]), 173 nM in the experiment with HLA-A*02:06 (setting [1]) and 139 nM in the experiment with HLA-A*02:02 (setting [1]).

For IVVPVIDRL, the dissociation constant Kd with HLA-A*02:03 (setting [1]) amounted to 226 nM; with HLA-A*02:06 (setting [1]) it was 30.9 nM; with HLA-A*02:02 (setting [1]), 144 nM.

FTLLFQLCT: the Kd is 744 nM with HLA-A*02:03 (setting [3]), 140 nM with HLA-A*02:06 (setting [3]) and 1100 nM with HLA-A*02:02 (setting [3]).

On to VAKCCSKTNT, for which the dissociation constant (Kd) is at least 21700 nM in the experiment with HLA-A*02:03 (setting [1]), at least 40800 nM in the experiment with HLA-A*02:06 (setting [1]) and 14700 nM with HLA-A*02:02 (setting [1]).

For the sequence IVYGRSNAIL, the Kd with HLA-A*02:03 (setting [1]) was 33.4 nM; with HLA-A*02:06 (setting [1]), 424 nM; with HLA-A*02:02 (setting [1]), 91.6 nM.

Regarding ELTSNCTRT, the values for the Kd with HLA-A*02:03 (setting [1]), with HLA-A*02:06 (setting [1]) and with HLA-A*02:02 (setting [1]) were at least 78100 nM, at least 46500 nM and at least 77800 nM, respectively.

For the sequence FTELENKKV, the Kd with HLA-A*02:03 (setting [1]) is 8080 nM; with HLA-A*02:06 (setting [1]) it was 6840 nM; with HLA-A*02:02 (setting [1]), 19600 nM.

For the sequence AIKSNNHLT, the dissociation constant Kd in the experiment with HLA-A*02:03 (setting [1]) is at least 28600 nM; in the experiment with HLA-A*02:06 (setting [1]), at least 77100 nM; with HLA-A*02:02 (setting [1]) it was at least 50700 nM.

Regarding PLPSLEYGA, the Kd in the experiment with HLA-A*02:03 (setting [1]) is 18900 nM; with HLA-A*02:06 (setting [1]), at least 42500 nM; with HLA-A*02:02 (setting [1]), 11400 nM.

Consider FMLNVSYLC, for which the Kd with HLA-A*02:03 (setting [4]) was 1250 nM; with HLA-A*02:06 (setting [4]) it was 932 nM; in the experiment with HLA-A*02:02 (setting [4]), 196 nM.

With SIDHCSSFIV, the figures for the dissociation constant Kd in the experiment with HLA-A*02:03 (setting [1]), in the experiment with HLA-A*02:06 (setting [1]) and with HLA-A*02:02 (setting [1]) were 772 nM, 30.3 nM and 172 nM, respectively.

AVANCVRNL: the Kd amounted to 114 nM with HLA-A*02:03 (setting [1]), 1380 nM with HLA-A*02:06 (setting [1]) and 66.3 nM in the experiment with HLA-A*02:02 (setting [1]).

Consider AILLVAVSFV, for which the Kd with HLA-A*02:06 (source organism: Dengue virus 2 Jamaica/1409/1983) is 60.9 nM.

Turning to YLYTEYFLFL, the Kd with HLA-A*02:03 (setting [1]) was 1.32 nM; with HLA-A*02:06 (setting [1]), 0.841 nM; with HLA-A*02:02 (setting [1]), 0.684 nM.

Take ILAGPMPVTA: the dissociation constant (Kd) with HLA-A*02:03 (source organism: Dengue virus 3 Martinique/1243/1999) was determined as 125 nM.

As to ELNIVDEIIK, the Kd in the experiment with HLA-A*33:01 (setting [1]) is 13900 nM; in the experiment with HLA-A*11:01 (setting [1]), 19000 nM; with HLA-A*31:01 (setting [1]), at least 70000 nM; with HLA-A*03:01 (setting [1]), 11800 nM; in the experiment with HLA-A*68:01 (setting [1]) it was 2650 nM.

Turning to DVKVLAARLK, the dissociation constant (Kd) with HLA-A*33:01 (setting [1]) worked out at 5070 nM; with HLA-A*11:01 (setting [1]), 2350 nM; with HLA-A*31:01 (setting [1]), 3000 nM; in the experiment with HLA-A*03:01 (setting [1]), 1160 nM; with HLA-A*68:01 (setting [1]) it was 592 nM.

With MVNHSTYYV, the Kd was determined as 810 nM with HLA-A*33:01 (setting [5]); 590 nM with HLA-A*11:01 (setting [5]); 10.3 nM with HLA-A*31:01 (setting [5]); 94.7 nM with HLA-A*03:01 (setting [5]); 94.8 nM in the experiment with HLA-A*68:01 (setting [5]).

TTGIGYQPYR: the dissociation constant Kd in the experiment with HLA-A*33:01 (setting [3]) came out at 1740 nM; with HLA-A*11:01 (setting [3]), 1140 nM; in the experiment with HLA-A*31:01 (setting [3]) it was 105 nM; with HLA-A*03:01 (setting [3]), 6450 nM; in the experiment with HLA-A*68:01 (setting [3]), 9.5 nM.

As for FFRKLVLTNK, the dissociation constant (Kd) with HLA-A*33:01 (setting [1]) was 243 nM; with HLA-A*11:01 (setting [1]), 390 nM; in the experiment with HLA-A*31:01 (setting [1]), 200 nM; with HLA-A*03:01 (setting [1]), 1020 nM; with HLA-A*68:01 (setting [1]), 3730 nM.

Consider DLIVTFRERY, for which the equilibrium dissociation constant (Kd) is 1240 nM with HLA-A*33:01 (setting [1]); 52.6 nM with HLA-A*11:01 (setting [1]); 137 nM in the experiment with HLA-A*31:01 (setting [1]); 35.1 nM with HLA-A*03:01 (setting [1]); 23.5 nM with HLA-A*68:01 (setting [1]).

For the sequence IAPGIADIR, the dissociation constant (Kd) is at least 29000 nM with HLA-A*33:01 (setting [1]); at least 50100 nM with HLA-A*11:01 (setting [1]); at least 23900 nM with HLA-A*31:01 (setting [1]); at least 78000 nM with HLA-A*03:01 (setting [1]); 29.4 nM with HLA-A*68:01 (setting [1]).

Turning to TLAVPYNMR, the equilibrium dissociation constant (Kd) in the experiment with HLA-A*33:01 (setting [3]) is 126 nM; with HLA-A*11:01 (setting [3]), 3230 nM; with HLA-A*31:01 (setting [3]), 152 nM; with HLA-A*03:01 (setting [3]), 995 nM; with HLA-A*68:01 (setting [3]), 9.36 nM.

Take DSPLTLLIK: the equilibrium dissociation constant (Kd) is at least 77700 nM in the experiment with HLA-A*33:01 (setting [1]); 6250 nM in the experiment with HLA-A*11:01 (setting [1]); at least 55600 nM with HLA-A*31:01 (setting [1]); at least 78000 nM in the experiment with HLA-A*03:01 (setting [1]); 1320 nM with HLA-A*68:01 (setting [1]).

For the sequence VMANNVKKK, the Kd was at least 75200 nM with HLA-A*33:01 (setting [1]); 215 nM with HLA-A*11:01 (setting [1]); 3910 nM in the experiment with HLA-A*31:01 (setting [1]); 31.8 nM with HLA-A*03:01 (setting [1]); 6170 nM with HLA-A*68:01 (setting [1]).

By Kd is commonly meant the concentration at which binding is half-saturated.
